The results in this text go back to patent US20230226096A1 (Orna Therapeutics, Inc., priority 2020, published 2023).

Sequences and labels used below:
B1: Grusopivirus B (nucleic acid)
DNA: GCCATCCGTAGGTTCTGGTAAGGTTCCATCAACTGTTGGGGCGCTAGTTGCTATGACCGCATTCACGGACGGATGATTTATAGTATCACCCAATCCGGGCACAACTTCTTTAGCCACTTCTTCCACATTACTAAGGGCTCTCTTGCCGAGTTTCAACGTCTAGTCCACGACACGGACCTTCCTACTTTTCTATCTTCTTATTTTCTCTACTAAATTGGTATCTGGTACTGAAGATATGCGGATTGTGATTTTGTGCCTGTCTAAACTAACCCTATTCTAGGGTTAGGTGGGTACCATATACTAATGGTGAACAGGATTACCTATGTATCCATTAGTCCCTATGGATCTGGCGACCCACAAACTCATGTTCATAGAGAGGCTAAGCTGAGTGCTCGCCGAATAAGCATTGCTTCAGGTGCCGACTATTGTCTGGAAACCACTCAGTGATAGCTATAGGGGGGGGCCCCGTAGCATCTGCCTTACTGCCTGATAGGGTGGCGGCTGGTCCATGAACATGCAGTAACCAGTTGACTTGAC
modifications: Grusopivirus B
B2: Murine Kobuvirus 1 (nucleic acid, listed as Kobuvirus sp.)
DNA: GTAACTTCAAGTGTGTGTGCTCGTAATCTTGACTCCTGCCGGAATGCCGCCCGGTTCAGTGAACAAACAGCTAGGCAAGTCCCTCCCTTCCCCTGTGGTCGGTTCTCACCGGCCACCATCCCTCCCCCAGCCTGACGTGTTACAGGCTGTGCAAAGCCCCCGCGAAAGCTGCTCACGTGGCAATTGTGGGTCCCCCCTTTGTCAAGACACCGAGTCTTTCTCCCTTAAGGCTAGCCCGGTCCCACGAACGTGGAACTGGCAACTAGTGGTGTCACTACACGCCTCCGACCTCGGACGCGGAGTGCTGTTCCCCAAGCTGTAACCCTGACCCAAGACTGTGCTGCCTGGCAAGCACCGTCTGGGAAGATGTTCCGCTGTGGCTGCCAAACCTGGTAACAGGTGCCCCAGTGTGTGTAGTCTTCCTCCAGTCTCCGGACTGGCAGTCTTGTGTAAAGATGCAGTGTAAGGTTCAAGTGCCAAATCCCTGGAAGGAGTGACCCTCTACTGCCCTAGGAATGCTGTGCAGGTACCCCCAACTTCGGTTGGGGATCTGAGCACAGGCTAATTGTCTACGGGTAGTTTCATTTCCCATCCTCTCTTTTTTGGCATC
B3: Caprine Kobuvirus 12Q108 (nucleic acid, listed as Kobuvirus sp.)
DNA: GGGGGTGGGGGGGGCCTCGGCCCCCTCACCCTCTTTTCCGGTGGCCACGCCCGGGCCACCGATACTTCCCTTCACTCCTTCGGGACTGTTGGGGAGGAACACAACAGGGCTCCCCTGTTTTCCCATTCCTTCCCCCTTTTCCCAACCCCAACCGCCGTATCTGGTGGCGGCAAGACACACGGGTCTTTCCCTCTAAAGCACAATTGTGTGTGTGTCCCAGGTCCTCCTGCGTACGGTGCGGGAGTGCTCCCACCCAACTGTTGTAAGCCTGTCCAACGCGTCGTCCTGGCAAGACTATGACGTCGCATGTTCCGCTGCGGATGCCGACCGGGTAACCGGTTCCCCAGTGTGTGTAGTGCGATCTTCCAGGTCCTCCTGGTTGGCGTTGTCCAGAAACTGCTTCAGGTAAGTGGGGTGTGCCCAATCCCTACAAAGGTTGATTCTTTCACCACCTTAGGAATGCTCCGGAGGTACCCCAGCAACAGCTGGGATCTGACCGGAGGCTAATTGTCTACGGGTGGTGTTTCCTTTTTCTTTTCACACAACTCTACTGCTGACAACTCACTGACTATCCACTTGCTCTCTTGTGCCTTTCTGCTCTGGTTCAAGTTCCTTGATTGTTTTTGACTGCTTTTCACTGCTTTTCTTCTCACAATCCTTGCTCAGTTCAAAGTC
B4: Rabbit Kobuvirus (nucleic acid, listed as Kobuvirus sp.)
DNA: GGGCTATAAATATGGGCATTCCTCTTCCCCCTTCCCCTTTTGAAGATGAGTGCGCATATTCTTGACTCCGCCTGGATTGGCCGCCCAAGGCGTGAACAAGCAGCTAGGCCACCATGACACTGCGGTGGTGTCCGAACCCGCGGGTGCCTTCACGGGCACCTGTGGTATGTAGGACTCCCACCGTGGTCTTCCCTTTCCCCCTCAATCTTTCCCCCTGGTTCGACTAACGGGACCAGTGCTGGAACCTGTCCGGTGAACGGTATAGCAGGCCCCCCCGGCAGAAACACCCGGTGCTTACCCCTTAAGGCTAGCCCCCTTCCATGAATTTGGTTGGGGCAACTAGTGGGTGTACAGTTGGCGTGAACCCTCCGGTCTAGGAGTGCTCTTGCCCAATCCTCTGTGTGTGCCTTGCAGTAGGGACTGGCAATCCTTCGCGTAGGTGATCCGCTGTGCCATGCCATCCTGGCGACAGGAGGCCCAGTGTGCGCAACCTACGTCCCTTCTGGGTGCTGCATTGCATTACCTTTGGAGTAAGCTTGGTGTGCCGAAACCCCAGGGTTTACGTACCACTCGTGGTGTGAGGAATGTGCCGCAGGTACCCCATCCTTGAGGTGGGATCTGAGCGGTAGCTAATTGTCTAGCACCACTTTCTTCCTTTTTTCTTTGCTGGTCACG
B5: Turkey Gallivirus M176 (nucleic acid, listed as Gallivirus sp.)
DNA: CCACTCGCACTTCCTGGATAGTGCGTTAGATATGCCCGACATATCGCTTCCAGGACCAAAGCCCCCCTTTTCTCTTTCCCAACCAGCTTCGCCACTCAAGCTGTAATTCCATGTCCGGTCTTTCCGGCCTTAGTATCATGGAAATGTGGTCGTGCTCAAATGAAATTGAGTTGACATTGATCAATGAAAGTTGCACTGAACTTTGCTAAACTGGCTAGCGCCACCTGGTGTGTGCCGTTGGTCTCCTCACATGGTAACATGTGCCAACGGGCCCGAAAGGCTAGTGGGCAATTACCGCTCCAAGGGAGGGGTACCCACCCCGACCTGAACAGCGGTAATGAAGCTCACCTCCCAGGCTCTGACCCCGAGAAGTTTAGTTATTTAGTAGGTGTAATTAGTACTTGTGATTGGTCAATTTGATAGTAGTTTGAAACGTTATGGATGAATGAGTAGACCCCCTGAAGGTACCCCATTACATGGGATCTGATCAGGGCCACATTCTGCGTGTCTCCCCGCACTTGTGGTTAAAACCATGAAAGTTCATCCCAAACAATCTTTTCCTCTTCTTTTTCTTTTAGTGGTGACAACCTACTGGATTGGTGATTACCAATCTGTACTAGTGTTGTATTAAGACTTGTTGTGTGGAGAAAATGGACTCTTTCAAGAAGATTTTTG
B6: Porcine Kobuvirus XX (nucleic acid, listed as Kobuvirus sp.)
DNA: CCACCGTTACTTCACTCCACTCCCTCGGGACTGGTTTGGAGGAGCATAACAGGGCTTCCCATCCCTGTTCACCCTCAATACCACCCACCCTTTCCCTCAACCATCCCTATCCACACCCCACTGACTGATTCCCTTGGATTTTGACCTCAGAACGCCTACTTGACCTCCCACTTGCCTTTCCCTTCTCGGATTGCCGGTGGTGCCTGGCGGAAAAAGCACAAGTGTGTTGCAGGCTACCAAACTCCTACCCGACAAAGGTACGTGTCCGCGTGCTGAGTAATGGGATAGGAGATGCCTACAACAGGCTCGCCCATGAGTAGAGCATGGACTGCGGTGCATGTGACTTCGGTCACCACGGGCATAGCATTGCTCACCCGTGAATCAAGTCATTGAGATTCCTCTGACCTCTGAAGTGCACTGTGGTTGCGTGGCTGGGAATCCACGCTTGACCATGTACTGCTTGATAGAGTCGCGGCTGGCCGACTCATGGGTTAAAGTCAGTTGATAAGACAC
B7: Grusopivirus A (nucleic acid)
DNA: TGCCTGAGTAGGATTGTGAATTTAGGTATGAGAGGGTTAGCCAACCCATTCTGAACCATAATAGATACGTCAATCTGAATCCATCTAAATCTATCTCTTAGGCAGTGGTGCTGAAATATTGCAAGCTACTAGGGATAGACGTGATCTGATTCAAGAACCTATCTAATGTGGTGATGAGAAGGCTAGGTTTATCCATAGTAATCCCTTGTTCTGAACAGGCAATGCACATGCTCTAGTAGGATCTCGGGCTCTGCGATTGGCTCTAAACCGACCAATCCAGGTAGAGGCACTAAGTGTAGGACTTGCCAAAATGTATTACATGCTGGTACCGACTCACTAGTCTGGAAACTCCACACTGAAAGTGACTGGGGGGGGCCCCATCACATTTGTGCTACTGCTTGATAGAGTTGCGGCTGGTCAACTTGGATTGGTATAACCAGTTGAA
modifications: Grusopivirus A
B8: Yancheng osbecks grenadier anchovy picornavirus (nucleic acid)
DNA: CCTTAGGGTCTGGAATGCGTCCTTTCTGGGCACTTCCACAATCCTAAGGTAATTTTCAACGCCAGCGATGGAGCGATATCCAAAGAACCTTTATGTTTTAGTTCGTCTTGTATGTTTATAAAATATAAAATTGGGATTAGCAACCCACAAAAACATTTTTGTTATTCTCACCACATGAGAGGGTGGTTAAACCTCTTCGTAACCTATCTTGCTTGATTGGCTACTTGGGCTAGATTTAGGACAACCTCTTTAGCAAGCCTAAATTACTCCTCGTACTTGCACCTGGTAACAGGCGTACCTGGAGGTTACGGTGGCGCTAACTTGGACTTCTCGTTAATTCGTGCAAGTTTAAATGATGCCTATTTTGAATACAAGAAAGTATGATAGTAACTTAGGGCGTGAAGTTCCGCTTAACATAAGGCAGTATAAGTACTAAGATAAGGTGTAAGACCTACCTTAATAACTGTTGTCTTTTCTCATGGTCTTTCCGTGGGAGCCCTTGCTAGGGGTAAAGTTAAGTATTCTCAAATAATTTTTCATTCAAACTCTTTCTCTCTGTTTT
B9: Aalivirus (nucleic acid, listed as Aalivirus sp.)
DNA: TTGAAAGGGGGTGCTCAGGGTAGCTCCCTGAGCTCTTCCCTCCACCCTCTTTCAACGTCTGGCCCACGATACGGGCCACCTTTCAATCTTAACTAACTATCCCTTTAATCTATTTGGATTTTCTGGTTTAGAATAATTTGGAACACATAATTGGATTATCTTTTAGGATTGTGGATAGGATTTGTTCGGGATATCACTCCCTTCCTGTGCTAACACATATTCTAATTCCCTCCTTTGTCTATTATCTCTTGGAGGTGGTGCTGAAATATTGCAAGCCACTTGAGTGTATAGATGAAGTAGGCTCAAGATGAATGTTGTGTTACTCAAGGCAAGTGTAGCTATCACTAAGATATTGGTAACGTGAAACGGATTACCGGTAGTAGCGTGATCTTCCGTCTTAGTGCTCTAGTGACTAGAGGACAACGACATGGCATCACATATCTTAACCCTCCAGTTTTGGCATCCGGGACAGAATGGGCTGGATATCCGCTTTCTTTCTGGGGTATGTGATGGGTGGTATTGGGGTAACCACCTTGACCATGACGCTCGATAAGAGTGACCGCCTGATCATTGAAACCTCTAGTATAAAATTCAGGCTGAAATC

In the data set the test system is HEK293 cells. The data set is classed as cell-based, human. As to conditions: luminescence from secreted Gluc in supernatant 24 hours after transfection of HEK293 cells; circular RNA encoding Gluc with the named IRES (UTR truncated to 675 nt).
The molecule B1 yielded an Expression of 2.12E+05.

With B2, the Expression amounted to 1.60E+07.

For the molecule B3, the Expression is 2.87E+08.

For the molecule B4, the Expression was determined as 3.73E+07.

On to B5, for which the Expression is given as 4.37E+05.

For B6, the Expression turned out to be 1.32E+07.

In turn, B7 came in with an Expression of 1.09E+05.

For B8, the Expression was 1.57E+06.

On to B9, for which the Expression came to 2.65E+05.
